# Measured values as given in doi:10.1101/677344.
# How the values were obtained:
# [1] = target: AausFP2 (Aequorea cf. australis); experiment: crystal structure
# [2] = target: AausFP1 (Aequorea cf. australis); experiment: crystal structure
Substance,stoichiometry N [1],stoichiometry N [2]
AausFP2 (natural protein),2,–
AausFP1 (natural protein),–,2
